The results in this text go back to PMC10791742 (Nature Communications, 2024).

Test [1] addresses T1, myotoxin II from Bothrops asper (Bothrops asper, UniProt P24605).
T1 construct: also called Mt; Lys49 PLA2-like toxin
As to the kind of experiment: BLI; […]) biosensors; Fab or IgG at 0, 1, 10 and 100 nM; 600 s association, 600 s dissociation; […]; 1:1 binding model, […]. To be noted: both partners purified.
T1 sequence (P24605 17-137): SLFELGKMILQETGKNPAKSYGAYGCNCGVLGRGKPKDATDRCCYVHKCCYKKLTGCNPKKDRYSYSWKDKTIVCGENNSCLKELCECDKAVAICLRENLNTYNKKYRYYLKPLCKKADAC

For test [2], the target named is T2, myotoxin II from Bothrops asper (Bothrops asper, UniProt P24605).
T2 construct: also called Mt; M2; source: purified from Bothrops asper venom (CM-Sephadex C25, RP-HPLC), biotinylated
As to the kind of experiment: BLI; […]) biosensors ([…] (0, 1, 10, 100 nM; […]. To be noted: both partners purified.
T2 sequence (P24605 17-137): as above

Bounds are passed on as bounds.

B1: E02(Fab) (Fab, V domains shown)
VH: QVQLLESGGGLVQPGRSLRLSCAASGFTFSSYGLHWVRQAPGKGLEWVAVISYDGSNKYYADSVKGRFTISRDNSKNTLYLQMNSLRAEDTAVYYCASTLQQLDAFDIWGQGTLVTVSS
VL: NFMLTQPHSVSESPGKTVTISCTRSSGSIASNYVQWYQQRPGTSPTIMIYEDNQRPSGVPDRFSGAIDSSSNSASLTISGLKTEDEADYYCQSYDSSSVVFGGGTKVTVL
notes: also called TPL0039_05_E02
In test [1], B1 returned a dissociation constant (Kd) of 2.4 nM.

B2: TPL0039_05_E02 IgG1 (LALA + YTE) (antibody, V domains shown)
VH: QVQLLESGGGLVQPGRSLRLSCAASGFTFSSYGLHWVRQAPGKGLEWVAVISYDGSNKYYADSVKGRFTISRDNSKNTLYLQMNSLRAEDTAVYYCASTLQQLDAFDIWGQGTLVTVSS
VL: NFMLTQPHSVSESPGKTVTISCTRSSGSIASNYVQWYQQRPGTSPTIMIYEDNQRPSGVPDRFSGAIDSSSNSASLTISGLKTEDEADYYCQSYDSSSVVFGGGTKVTVL
notes: also called E02(LALA + YTE); copies: 2 + 2
In test [2], B2 showed a koff of less than 1e-07 s⁻¹ and a kon of 491000 M⁻¹ s⁻¹.

B3: E02(LALA + YTE) human IgG1 (antibody, V domains shown)
VH: QVQLLESGGGLVQPGRSLRLSCAASGFTFSSYGLHWVRQAPGKGLEWVAVISYDGSNKYYADSVKGRFTISRDNSKNTLYLQMNSLRAEDTAVYYCASTLQQLDAFDIWGQGTLVTVSS
VL: NFMLTQPHSVSESPGKTVTISCTRSSGSIASNYVQWYQQRPGTSPTIMIYEDNQRPSGVPDRFSGAIDSSSNSASLTISGLKTEDEADYYCQSYDSSSVVFGGGTKVTVL
notes: also called TPL0039_05_E02
With B3, in test [1], the Kd was less than 0.001 nM.

B4: TPL0039_05_B04 IgG1 (LALA + YTE) (antibody, V domains shown)
VH: EVQLLESGGGVVQPGRSLRLSCAASGFTFSSYGMHWVRQAPGKGLEWVAVISYDGSNKYYADSVKGRFTISRDNSKNTLYLQMNSLRAEDTAVYYCARVGENEAFDIWGQGTMVTVSS
VL: NFMLTQPHSVSESPGKTVTISCTRSSGSIARNYVQWYQQRPGSAPTTVIYEDNQRPSGVPDRFSGSIDSSSNSASLTISGLKTEDEADYYCQSYDSSTVVFGGGTKLTVL
notes: also called B04(LALA + YTE); copies: 2 + 2
B4: in test [2], the Kd was determined as 0.0758 nM, the koff turned out to be 6.53e-05 s⁻¹ and the kon came to 861000 M⁻¹ s⁻¹.

B5: TPL0039_05_E02 Fab (Fab, V domains shown)
VH: QVQLLESGGGLVQPGRSLRLSCAASGFTFSSYGLHWVRQAPGKGLEWVAVISYDGSNKYYADSVKGRFTISRDNSKNTLYLQMNSLRAEDTAVYYCASTLQQLDAFDIWGQGTLVTVSS
VL: NFMLTQPHSVSESPGKTVTISCTRSSGSIASNYVQWYQQRPGTSPTIMIYEDNQRPSGVPDRFSGAIDSSSNSASLTISGLKTEDEADYYCQSYDSSSVVFGGGTKVTVL
notes: also called Fab E02; source: Expi293F, transient expression, purified (anti-CH1 resin, desalted into PBS)
As for B5, in test [2], the koff stood at 0.000872 s⁻¹ and the kon turned out to be 360000 M⁻¹ s⁻¹.

B6: TPL0039_05_A03 IgG1 (LALA + YTE) (antibody, V domains shown)
VH: QVQLVESGGGLAKPGRSLRLSCAVSGFTFSSYGMHWVRQAPGKGLEWVAVISYDGSNKYYADSVKGRFTISRDNSKNTLYLQMNSLRAEDTAVYYCASTLQQLDAFDIWGQGTMVTVSS
VL: NFMLTQPHSVSESPGKTITISCTRSSGSIASNYVQWYQQRPGSVPTPVIYEDDRRPSGVPDRFSGSIDSSSNSASLTISGLKTEDEADYYCQSYDSSSVVFGGGTKITVL
notes: also called A03(LALA + YTE); copies: 2 + 2
In test [2], B6 yielded a Kd of less than 0.001 nM, a koff of less than 1e-07 s⁻¹ and a kon of 648000 M⁻¹ s⁻¹.

B7: TPL0039_05_F04 IgG1 (LALA + YTE) (antibody, V domains shown)
VH: QVQLVESGGGVVQPGRSPRLSCAASGFTFSSYGMHWVRQAPGKGLEWVAVISYDGSNKYYADSVKGRFTISRDNSKNTLYLQMNSLRAEDTAVYYCAKDLEYSSSSWGQGTLVTVSS
VL: NFMLTQPHSVSESPGKTVTISCTRSSGSIASNYVQWFQQRPGSSPTTVIYEDDQRPSGVPDRFSGSIDSSSNSASLTISGLKTEDEATYFCQSYDSSTVVFGGGTKVTVL
notes: also called F04(LALA + YTE); copies: 2 + 2
On to B7, for which, in test [2], the affinity, expressed as Kd, was 0.0181 nM; the koff was 1.31e-05 s⁻¹; the association rate constant (kon) stood at 723000 M⁻¹ s⁻¹.

B8: TPL0039_05_B12 IgG1 (LALA + YTE) (antibody, V domains shown)
VH: EVQLVESGGGVVQPGRSLRLSCAASGFTFSSYGMHWVRQAPGKGLEWVAVISYDGSNKYYADSVKGRFTISRDNSKNTLYLQMNSLRAEDTAVYYCAGWTEGDAFDIWGQGTLVTVSS
VL: NFMLTQPHSVSESPGKTVTISCTRSSGSIASNYVQWYQQRPGSAPSTVIYEDNRRPSGVPDRFSGSIDSASNSASLTISGLKTEDEADYYCQSYDSSSVVFGGGTKITVL
notes: also called B12(LALA + YTE); copies: 2 + 2
In test [2], B8 gave a Kd of less than 0.001 nM, a koff of less than 1e-07 s⁻¹ and a kon of 685000 M⁻¹ s⁻¹.

B9: TPL0039_05_G08 IgG1 (LALA + YTE) (antibody, V domains shown)
VH: EVQLVESGGGVVQPGRSLRLSCAASGFTFSSYGMHWVRQAPGKGLEWVAVISYDGSNKYYADSVKGRFTISRDNSKNTLYLQMNSLRAEDTAVYYCARTNYDSGDAFDIWGQGTLVTVSS
VL: NFMLTQPHSVSESPGKTVTISCTRSSGSIASNYVQWYQQRPGSSPTTVIYEDNQRPSGVPDRFSGSIDSSSNSASLTISGLKTEDEADYYCQSYDSSTVVFGGGTKLTVL
notes: also called G08(LALA + YTE); copies: 2 + 2
In test [2], B9 gave a Kd of less than 0.001 nM, a koff of less than 1e-07 s⁻¹ and a kon of 245000 M⁻¹ s⁻¹.
